The source of these data is patent US20240368242A1.

Experiment [1] addresses recombinant human CD47 protein (human) (UniProt Q08722). Nature of the experiment: SPR, binding to human CD47. On the technique in general: Surface plasmon resonance follows binding to a sensor surface in real time, without labels.
The target in experiment [2] is murine OX40 expressed on CHOK1 cells (CHOK1/mOX40) (murine) (UniProt P47741). Nature of the experiment: flow cytometry on CHOK1-mOX40 cells. (In general: In flow cytometry, cells or beads pass a laser one at a time.)
The target in a further experiment is FcRn-His (Example 11). In words: SPR (BioRad ProteOn XPR 360), His-tagged target chip-bound.
In the next experiment the target is Human FcγR1A. In words: SPR, binding to human FcγR1A.
In the next experiment the target is Human FcRn (human) (UniProt P55899). In words: SPR, binding to human FcRn.

Usually Kd stands for the equilibrium constant for the complex coming apart. For orientation: koff means the rate constant with which the complex falls apart. What is called kon is a measure of how fast the partners come together.

recombinant human CD47 protein (human), sequence (Q08722 19-139 limits assumed): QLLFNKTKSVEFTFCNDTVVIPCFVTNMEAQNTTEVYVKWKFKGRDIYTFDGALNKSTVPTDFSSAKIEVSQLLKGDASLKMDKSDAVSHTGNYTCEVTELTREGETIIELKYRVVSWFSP
FcRn-His (Example 11), sequence (Q61559 22-297, chain 1 of 2): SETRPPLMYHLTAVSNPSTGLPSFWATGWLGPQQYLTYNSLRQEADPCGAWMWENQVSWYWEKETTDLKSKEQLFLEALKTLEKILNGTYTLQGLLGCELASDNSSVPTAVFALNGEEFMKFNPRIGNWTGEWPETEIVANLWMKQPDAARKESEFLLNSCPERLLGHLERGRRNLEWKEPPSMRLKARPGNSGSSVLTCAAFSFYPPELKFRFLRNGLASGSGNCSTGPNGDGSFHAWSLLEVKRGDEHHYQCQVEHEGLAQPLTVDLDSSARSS
FcRn-His (Example 11), sequence (P01887 21-119, chain 2 of 2, further chain): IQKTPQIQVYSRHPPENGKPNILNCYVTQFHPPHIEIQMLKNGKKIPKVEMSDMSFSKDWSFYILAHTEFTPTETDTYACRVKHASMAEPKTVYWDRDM
Human FcγR1A, sequence (chain, as listed by the source limits assumed): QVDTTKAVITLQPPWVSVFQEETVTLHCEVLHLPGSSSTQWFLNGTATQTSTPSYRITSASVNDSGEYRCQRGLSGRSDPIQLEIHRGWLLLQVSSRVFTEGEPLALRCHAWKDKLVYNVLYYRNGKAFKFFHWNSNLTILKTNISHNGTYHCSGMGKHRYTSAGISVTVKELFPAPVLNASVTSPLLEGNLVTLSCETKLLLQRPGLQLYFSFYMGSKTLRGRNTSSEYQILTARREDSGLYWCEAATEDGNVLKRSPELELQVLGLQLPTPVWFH
Human FcRn (human), sequence (P55899 24-297 limits assumed, chain 1 of 2): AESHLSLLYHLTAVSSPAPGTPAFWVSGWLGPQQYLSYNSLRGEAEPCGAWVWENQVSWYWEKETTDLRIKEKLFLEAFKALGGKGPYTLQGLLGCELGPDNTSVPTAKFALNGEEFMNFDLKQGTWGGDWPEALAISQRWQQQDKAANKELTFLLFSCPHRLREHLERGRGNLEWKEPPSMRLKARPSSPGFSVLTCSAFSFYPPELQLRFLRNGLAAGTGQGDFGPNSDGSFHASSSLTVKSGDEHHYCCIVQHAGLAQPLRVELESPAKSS
Human FcRn (human), sequence (chain, as listed by the source limits assumed, chain 2 of 2): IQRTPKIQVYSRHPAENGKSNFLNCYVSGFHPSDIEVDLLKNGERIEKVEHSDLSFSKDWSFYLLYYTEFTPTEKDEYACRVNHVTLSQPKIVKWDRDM
murine OX40 expressed on CHOK1 cells (CHOK1/mOX40) (murine), sequence (P47741 20-272): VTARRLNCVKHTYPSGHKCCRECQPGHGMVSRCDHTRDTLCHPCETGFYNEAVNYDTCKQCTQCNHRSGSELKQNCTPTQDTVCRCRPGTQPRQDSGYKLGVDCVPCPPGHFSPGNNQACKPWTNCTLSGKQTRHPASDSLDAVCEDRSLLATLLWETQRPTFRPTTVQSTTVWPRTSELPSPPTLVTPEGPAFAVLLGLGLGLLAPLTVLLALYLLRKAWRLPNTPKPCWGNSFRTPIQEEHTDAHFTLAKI

Turning to CD172a-Fc Cntl (Fc fusion), in experiment [1], the Kd turned out to be 3.16 nM, the off-rate (koff) was 0.00239 s⁻¹ and the kon amounted to 756000 M⁻¹ s⁻¹.
For the substance “murine TIM3-Fc-OX40L chimeric protein (from UniProt Q8VIM0 20-193; P43488 51-198) (Fc fusion)”, the affinity (cell binding assay) in experiment [2] turned out to be 15.2 nM.
In the experiment with FcRn-His (Example 11), “IgG2A (control protein, Example 11) (antibody)” came in with a Kd of 8.08 nM, a koff of 0.0242 s⁻¹ and an association rate constant (kon) of 3e+06 M⁻¹ s⁻¹.
In the experiment with Human FcγR1A, IgG1 (antibody) returned a dissociation rate constant (koff) of 0.00044 s⁻¹ and an on-rate (kon) of 24900 M⁻¹ s⁻¹. In the experiment with Human FcRn (human), this substance gave an off-rate (koff) of 0.0046 s⁻¹ and an on-rate constant (kon) of 945000 M⁻¹ s⁻¹.
